Measurements published in article PMC6565675, “Cryo-electron microscopy structure of an archaeal ribonuclease P holoenzyme” (Nature Communications, 2019).

Assays:
[1] = molecular target: T1, Methanocaldococcus jannaschii RNase P protein subunit Rpp30 (Methanocaldococcus jannaschii, UniProt Q58539 1-232); test: cryo-EM structure; MjaRNase P holoenzyme reconstituted in vitro from RPR and the purified protein components, purified by SEC; alone (4.6 Å) and with E. coli tRNA^Tyr (4.3 Å); buffer exchanged on the grid to 40 mM Hepes, pH 7.5, 200 mM NaCl; C2 symmetry applied; conditions: both partners purified
T1 construct: Rpp30, protein subunit of RNase P of Methanocaldococcus jannaschii; full-length gene cloned; Purified as the (Pop5-Rpp30)2 heterotetramer; two copies in the dimeric holoenzyme; also called MjaRpp30; source: E. coli BL21 (DE3), co-expressed with MjaPop5 from pETDuet, purified (Ni-NTA, heating at 65 °C, ion-exchange, SEC)
T1 sequence (looked up): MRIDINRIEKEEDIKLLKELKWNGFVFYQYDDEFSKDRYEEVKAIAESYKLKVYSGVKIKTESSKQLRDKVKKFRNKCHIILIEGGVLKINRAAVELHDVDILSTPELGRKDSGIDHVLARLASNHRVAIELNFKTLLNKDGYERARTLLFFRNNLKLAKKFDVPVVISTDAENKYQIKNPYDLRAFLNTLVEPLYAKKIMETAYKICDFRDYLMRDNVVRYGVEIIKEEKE

[2] = molecular target: T2, Methanocaldococcus jannaschii RNase P protein subunit Rpp21 (Methanocaldococcus jannaschii, UniProt Q58372 1-128); test: as above; conditions: both partners purified
T2 construct: Rpp21, protein subunit of RNase P of Methanocaldococcus jannaschii; also called MjaRpp21; source: E. coli, expressed as the MjaRpp29-MjaRpp21 heterodimer, purified by the same procedure as Pop5-Rpp30
T2 sequence: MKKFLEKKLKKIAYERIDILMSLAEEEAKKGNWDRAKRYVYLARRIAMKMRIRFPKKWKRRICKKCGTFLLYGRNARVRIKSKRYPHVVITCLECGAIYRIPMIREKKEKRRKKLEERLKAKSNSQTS

binding result [1]: binds
binding result [2]: binds
B1: Methanocaldococcus jannaschii RNase P protein subunit Rpp29 (natural protein)
chain: MITPHNILRHELIGLKVEIVEAKNKAMIGIKGKVVDETRNTLVIEKEDGREVVIPKDIAVFLFQLKGCKVKVDGRLLIGRPEERLKKKIKILYPY
notes: Rpp29, protein subunit of RNase P of Methanocaldococcus jannaschii; also called MjaRpp29; source: E. coli, expressed as the MjaRpp29-MjaRpp21 heterodimer, purified by the same procedure as Pop5-Rpp30
